From patent US20230295344A1 (published 2023)
Ends that are not written are not given here. * marks the point of attachment. Biotin = O=C1N[C@H]2[C@H](CS[C@H]2CCCCC(=O)*)N1

How the values were obtained:
Assay in all cases: labelled AK1967 on biotinylated peptide on avidin plate, chemiluminescence
[1] = target: T1, epitope mapping peptide #4
T1 peptide: Biotin-AFNFDQETVINPETGEQ
Method: (§1) These peptides include the sequence of the full immunization peptide (SEQ ID No. 2) or fragments thereof, with stepwise removal of one amino acid from either C- or N-terminus (see table 5 for a complete list of peptides).
(§2) High binding 96 well plates were coated with 2 µg Avidin per well (Greiner Bio-One international AG, Austria) in coupling buffer (500 mM Tris-HCl, pH 7.8, 100 mM NaCl). Afterwards plate were washed and filled with specific solutions of biotinylated peptides (10 ng/ well; buffer – 1xPBS with 0.5% BSA)
(§3) The plates were filled with 200 µl of labeled and diluted detection antibody (tracer) and incubated for 4 h at room temperature. Unbound tracer was removed by washing 4 times with 350 µl washing solution (20 mM PBS, pH 7.4, 0.1 % Triton X-100). Well-bound chemiluminescence was measured by using the Centro LB 960 luminometer (Berthold Technologies GmbH & Co. KG).

[2] = target: T2, epitope mapping peptide #6
T2 peptide: Biotin-AFNFDQETVINPETG
Method: as §1, §2, §3

[3] = target: T3, epitope mapping peptide #11
T3 construct: final K stands where DPP3 has R
T3 peptide: ETGEQIQSWYK(Biotin)
Method: as §1, §2, §3

[4] = target: T4, epitope mapping peptide #13
T4 construct: final K stands where DPP3 has R
T4 peptide: NPETGEQIQSWYK(Biotin)
Method: as §1, §2, §3

[5] = target: T5, epitope mapping peptide #10
T5 peptide: Biotin-AFNFDQETVIN
Method: as §1, §2, §3

[6] = target: T6, epitope mapping peptide #9
T6 peptide: Biotin-AFNFDQETVINP
Method: as §1, §2, §3

[7] = target: T7, epitope mapping peptide #8
T7 peptide: Biotin-AFNFDQETVINPE
Method: as §1, §2, §3

[8] = target: T8, epitope mapping peptide #14
T8 construct: final K stands where DPP3 has R
T8 peptide: INPETGEQIQSWYK(Biotin)
Method: as §1, §2, §3

[9] = target: T9, epitope mapping peptide #12
T9 construct: final K stands where DPP3 has R
T9 peptide: PETGEQIQSWYK(Biotin)
Method: as §1, §2, §3

[10] = target: T10, epitope mapping peptide #15
T10 construct: final K stands where DPP3 has R
T10 peptide: VINPETGEQIQSWYK(Biotin)
Method: as §1, §2, §3

[11] = target: T11, epitope mapping peptide #5
T11 peptide: Biotin-AFNFDQETVINPETGE
Method: as §1, §2, §3

[12] = target: T12, epitope mapping peptide #3
T12 peptide: Biotin-AFNFDQETVINPETGEQI
Method: as §1, §2, §3

[13] = target: T13, epitope mapping peptide #1 (N-terminal biotin)
T13 peptide: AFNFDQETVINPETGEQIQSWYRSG
Method: as §1, §2, §3

[14] = target: T14, epitope mapping peptide #16
T14 construct: final K stands where DPP3 has R
T14 peptide: TVINPETGEQIQSWYK(Biotin)
Method: as §1, §2, §3

[15] = target: T15, epitope mapping peptide #17
T15 construct: final K stands where DPP3 has R
T15 peptide: ETVINPETGEQIQSWYK(Biotin)
Method: as §1, §2, §3

[16] = target: T16, epitope mapping peptide #2
T16 peptide: Biotin-AFNFDQETVINPETGEQIQ
Method: as §1, §2, §3

B1: murine monoclonal anti-DPP3 antibody AK1967 (clone 1967) (antibody, V domains shown)
VH: QVTLKESGPGILQPSQTLSLTCSFSGFSLSTSGMSVGWIRQPSGKGLEWLAHIWWNDNKSYNPALKSRLTISRDTSNNQVFLKIASVVTADTGTYFCARNYSYDYWGQGTTLTVSS
VL: DVVVTQTPLSLSVSLGDPASISCRSSRSLVHSIGSTYLHWYLQKPGQSPKLLIYKVSNRFSGVPDRFSGSGSGTDFTLKISRVEAEDLGVYFCSQSTHVPWTFGGGTKLEIK
notes: Acridinium-labelled in the plate assays
- binding result [1]: binds
- binding result [2]: binds
- binding result [3]: no binding
- binding result [4]: no binding
- binding result [5]: no binding
- binding result [6]: no binding
- binding result [7]: no binding
- binding result [8]: binds
- binding result [9]: no binding
- binding result [10]: binds
- binding result [11]: binds
- binding result [12]: binds
- binding result [13]: binds
- binding result [14]: binds
- binding result [15]: binds
- binding result [16]: binds
